Laboratory results as given in article PMC11860714.

Biological target: 329 SOSIP.v8.2 Env trimer (HIV-1 clade C)
Experiment: native gel or EMSA; BN-PAGE, NuPAGE 4–12% Bis-Tris gels; 2 µg SOSIP trimers or equimolar SOSIP–ferritin (2.5 µg) and SOSIP-I53-50 (3.2 µg) NPs

## 329 SOSIP.v8.2 Env trimer (domain or fragment)
  stoichiometry N: 3
